Series [1] deals with type I-F CRISPR RNA-guided surveillance complex (Csy) (Pseudomonas aeruginosa) (UniProt Q02ML9). As to the kind of experiment: cryo-EM structure; Csy–AcrIF9 complex co-expressed in E. coli and co-purified (Ni-NTA, Superdex 200 in 20 mM HEPES pH 7.5, 100 mM NaCl, 5% glycerol, 1 mM TCEP); nominal resolution ~3.9 Å.
Series [2] deals with the molecule itself. The description is as above.

One may read the stoichiometry N as the number of molecules, sites or subunits per partner or assembly.

Chain of type I-F CRISPR RNA-guided surveillance complex (Csy) (Pseudomonas aeruginosa) (Q02ML9 whole entry, chain 1 of 3): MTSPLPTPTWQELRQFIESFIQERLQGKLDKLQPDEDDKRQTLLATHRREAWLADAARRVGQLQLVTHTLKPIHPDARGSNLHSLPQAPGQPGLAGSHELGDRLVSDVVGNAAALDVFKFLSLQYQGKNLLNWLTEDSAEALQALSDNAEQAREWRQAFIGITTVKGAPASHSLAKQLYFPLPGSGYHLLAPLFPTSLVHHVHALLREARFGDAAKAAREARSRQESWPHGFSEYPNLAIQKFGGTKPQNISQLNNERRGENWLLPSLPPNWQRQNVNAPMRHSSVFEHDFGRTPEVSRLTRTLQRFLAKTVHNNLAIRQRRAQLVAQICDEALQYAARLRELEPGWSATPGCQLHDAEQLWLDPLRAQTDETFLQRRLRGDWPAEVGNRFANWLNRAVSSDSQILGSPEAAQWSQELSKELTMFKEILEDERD
Chain of type I-F CRISPR RNA-guided surveillance complex (Csy) (Pseudomonas aeruginosa) (Q02MM0 whole entry, chain 2 of 3, further chain): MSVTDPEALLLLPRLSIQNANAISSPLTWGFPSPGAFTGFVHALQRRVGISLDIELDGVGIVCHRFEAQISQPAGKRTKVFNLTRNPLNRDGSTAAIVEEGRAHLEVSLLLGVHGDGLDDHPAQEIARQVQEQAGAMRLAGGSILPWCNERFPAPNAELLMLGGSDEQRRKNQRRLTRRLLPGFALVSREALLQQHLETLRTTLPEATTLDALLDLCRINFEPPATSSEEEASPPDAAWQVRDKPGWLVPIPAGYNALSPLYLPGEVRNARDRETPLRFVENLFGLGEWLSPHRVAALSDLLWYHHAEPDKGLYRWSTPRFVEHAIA
Chain of type I-F CRISPR RNA-guided surveillance complex (Csy) (Pseudomonas aeruginosa) (Q02MM2 whole entry, chain 4 of 3, further chain): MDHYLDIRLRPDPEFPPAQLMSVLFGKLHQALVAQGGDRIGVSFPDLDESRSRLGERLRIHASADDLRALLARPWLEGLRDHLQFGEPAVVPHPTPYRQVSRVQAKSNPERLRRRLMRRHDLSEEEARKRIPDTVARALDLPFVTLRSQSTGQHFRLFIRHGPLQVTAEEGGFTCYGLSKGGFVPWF

In series [1], “anti-CRISPR protein IF9 (AcrIF9), co-expressed with Csy (natural protein)” yielded a stoichiometry N of 2.

B1: Cas7f (natural protein, Pseudomonas aeruginosa)
chain: SKPILSTASVLAFERKLDPSDALMSAGAWAQRDASQEWPAVTVREKSVRGTISNRLKTKDRDPAKLDASIQSPNLQTVDVANLPSDADTLKVRFTLRVLGGAGTPSACNDAAYRDKLLQTVATYVNDQGFAELARRYAHNLANARFLWRNRVGAEAVEVRINHIRQGEVARAWRFDALAIGLRDFKADAELDALAELIASGLSGSGHVLLEVVAFARIGDGQEVFPSQELILDKGDKKGQKSKTLYSVRDAAAIHSQKIGNALRTIDTWYPDEDGLGPIAVEPYGSVTSQGKAYRQPKQKLDFYTLLDNWVLRDEAPAVEQQHYVIANLIRGGVFGEAEEK
notes: Cas7f, backbone subunit of the type I-F Csy complex of Pseudomonas aeruginosa; Stood in the assay as a subunit of the Csy complex (six copies along the crRNA); also called Cas7.4f; Cas7.6f; source: E. coli BL21 (DE3), co-expressed with the other Csy genes, a synthetic CRISPR and AcrIF9; purified within the complex (Ni-NTA, Superdex 200)
Turning to B1, the “stoichiometry N” value in series [2] was found to be 6.
